molecular target: acetylcholine receptor; test: SPR, receptor immobilised on chip, peptide at 10 uM

| Binder | Binding affinity (RU) |
| --- | --- |
| KNTKKR [6mer-2-961] | 21 |
| KFKARK [6mer-2-958] | 28 |
| KESGKR [6mer-2-980] | 34 |
| RCEIRK [6mer-2-981] | 32 |
| KKAFKK [6mer-2-979] | 22 |
| RFDDRR [6mer-2-974] | 38 |
| RTNARK [6mer-2-959] | 35 |
| KEDAKR [6mer-2-966] | 41 |
| KAKHRR [6mer-2-963] | 37 |
| RTWHRR [6mer-2-983] | 37 |
| RADEKK [6mer-2-951] | 42 |
| KCTIRK [6mer-2-954] | 32 |
| KATHKR [6mer-2-969] | 33 |
| KESVKK [6mer-2-953] | 25 |
| KDMWKK [6mer-2-984] | 43 |
| RTTGKK [6mer-2-976] | 26 |
| RMHAKK [6mer-2-982] | 38 |
| KYNKRR [6mer-2-950] | 26 |
| KKSNRK [6mer-2-962] | 30 |

| Binder | Binding affinity (RU) |
| --- | --- |
| KFCWRR [6mer-2-956] | 28 |
| KEPHRR [6mer-2-978] | 28 |
| RDCVKR [6mer-2-960] | 29 |
| RHWEKK [6mer-2-968] | 39 |
| KEMFRK [6mer-2-971] | 29 |
| RMPERR [6mer-2-955] | 29 |
| KAMFRR [6mer-2-972] | 38 |
| KPWFKR [6mer-2-965] | 36 |
| RDTHRR [6mer-2-957] | 40 |
| RTSNKK [6mer-2-967] | 35 |
| KYWGRR [6mer-2-952] | 24 |
| KKTMKK [6mer-2-975] | 38 |
| REMNKR [6mer-2-985] | 34 |
| REMKRK [6mer-2-977] | 30 |
| KCEDRK [6mer-2-964] | 41 |
| KDDVRR [6mer-2-970] | 27 |
| KCPIKK [6mer-2-973] | 41 |
| KNWARR [6mer-2-986] | 27 |

More lines, now with the values ahead:

| Binding affinity (RU) | Binder |
| --- | --- |
| 43 | KEMWKK [6mer-2-998] |
| 30 | KISFKK [6mer-2-997] |
| 40 | RHDARK [6mer-2-996] |
| 29 | RHDVKK [6mer-2-993] |
| 22 | RCHPKK [6mer-2-987] |
| 38 | KFWEKK [6mer-2-995] |
| 41 | KMCEKK [6mer-2-988] |
| 22 | KAHNKR [6mer-2-989] |
| 41 | RKKMKR [6mer-2-990] |
| 33 | RMHFRR [6mer-2-992] |
| 41 | KYCIKK [6mer-2-994] |
| 30 | KCHFRR [6mer-2-991] |

molecular target: acetylcholine receptor; test: SPR, peptide at 10 uM on immobilized AchR

| Binding affinity (RU) | Binder |
| --- | --- |
| 29 | RDEMKR [6mer-2-1015] |
| 38 | RAWKKR [6mer-2-1008] |
| 37 | RFHNKR [6mer-2-1024] |
| 30 | RATMRR [6mer-2-1006] |
| 36 | RANHKK [6mer-2-1010] |
| 23 | RNTWKK [6mer-2-1019] |
| 32 | KTPVKK [6mer-2-1027] |
| 23 | RFKARR [6mer-2-1005] |
| 42 | KPEWKR [6mer-2-1003] |
| 33 | KENHRK [6mer-2-1026] |
| 31 | RATIKR [6mer-2-999] |
| 34 | RPPMRR [6mer-2-1014] |
| 39 | RYTPKR [6mer-2-1021] |
| 22 | RAEFRR [6mer-2-1011] |
| 41 | KCHDKK [6mer-2-1000] |
| 40 | RAPVRR [6mer-2-1017] |
| 37 | RKKFKK [6mer-2-1001] |
| 30 | KASAKK [6mer-2-1012] |
| 22 | KCNPRR [6mer-2-1022] |
| 24 | RPTKKK [6mer-2-1018] |
| 42 | RHTNKK [6mer-2-1007] |
| 39 | RCSHRR [6mer-2-1025] |
| 38 | RDTHKR [6mer-2-1004] |
| 23 | KPPDKR [6mer-2-1013] |
| 42 | RCNDKR [6mer-2-1002] |
| 41 | RNEEKR [6mer-2-1016] |
| 34 | KINPRK [6mer-2-1009] |
| 21 | KHDKKR [6mer-2-1020] |
| 26 | KAEFKR [6mer-2-1023] |
